# Experiment: soluble on expression in E. coli; label from the status in PepcDB or PDB records
row,Sequence,soluble on expression in E. coli
1,GAMGNERRILEQKKHYFWLLLQRTYTKTGKPKPSTWDLASKELGESLEYKALGDEDNIRRQIFEDFKPE,soluble
2,MGSDKIHHHHHHLKQKILHIIDSFSTGGAEVLLAGVIPELVDFEHVIVYLTPTKTPILSSDPTIKIVCLNFRSITDATRIIKDLNTIIEQEKPGIIHTHLYFSSLFIRFARTNKINIIQTYHNEYYRIRYPQFSARIKKIGLKLLDRFTMKNAYTVIHVSKAQQLVNDHDVRIKSSAVLYNYVEDQFYQTRKTSSFKGTGKLKIICVGNLKTEKNHILLLHALRQLMHLPIHVTICGEGNDYIMLQKYINRYDLPVTLMGSQKNIHELLGQHDLFVSCSIIEGFGISIAEAMASEIPLIISDISTFKEVTQNKAVFFESRNVASLAEKIEQFYLSPQSAAASVLACKEIAEQYKKSFYLDRLNTLYKK,not soluble
3,QRSHVASCSHSLSVIQFNLFYENSDINQFINYLLRHPADLVVMQELTPRVGSLLHMLDDVYPHYHGGQRDVGYPSNLMILSRHPITEVSVYRAPNGQEVIRAVWLPKGQAPITLFAAHPPSPRTSELWHQRNALVRTIETLTALYPEPEVLVVGDFNLSSVSPRFSTLFPSFQTAPVTSWPTNIKGINVPEPMMIGIDHLWLKSEQGQRIICSRESSALPQGSDHRMVTTQIGVHIP,not soluble
4,MLGSPVAGAQVRVWQLDLDGQRKGREPLREAVTDDRGRFRIEMGAAHGNLLVESAGGETRELWSEEPLGLDPDVPLEAIIPLYIPVQHREIVVSPFTSVAAALVERRPVEPGRFHEAMQGVHALLGGHLGGIDILDAPVTPIDEPATQLTPGVRHGLLLGALSMLAGRMAEETGASVRGLNTMMLTAALREDARDESGLLDGVGPEGAIALGFCVDPPSGADTPLCRLSAQTLRQDLAETLAFHLLGSAQDGTGLSFGDGVVLANEVAQGTETALFGNVQPGNVGDERAPVITPLASPYYEESEDAIAFEDDLTPVHVRSEAARIDLSEVFENDCDREIHKHVDVLGAGDANPLRWRFAVKDDLAGFDVEDLLVQLRVPGVLAARPLAVTSVELPEGETAPGRVFEVFARERDAEELARVEGRYNIEIAATDRLGNTSPVLRGCWRHVPRAAPLWAGSFNAASGPGSFDERRLESNNLAPVLRGDQAPVLARLEVQNNTDEDVFLTLRADDIVGRYSATWTRSRVLLSEEEGMSDCLETGECFSAPPPDVVDEIIGLQPIPDSLVTLRVFDLATGVTPKCPNCRPNEVQIAAGGHFEVQAVVSNLAFLVPPSVNRTQIQEIQVGPIGAQVQLTGVDRRGYVHCEDTVPGSSLCRVRLSYQLFHALARATLQVDSLTISAVSSPLSTLAPRSPQPPLEGDNFTFSLPVSTAVTWTTEDASIPVSQ,not soluble
5,CSCSPVHPQQAFCNADIVIRAKAVNKKEVDSGNDIYGNPIKRIQYEIKQIKMFKGPDQDIEFIYTAPAAAVCGVSLDIGGKKEYLIAGKAEGNGNMHITLCDFIVPWDTLSATQKKSLNHRYQMGCECKITRCPMIPCYISSPDECLWMDWVTEKNINGHQAKFFACIKRSDGSCAWYRGAAPP,soluble
6,MVGNMNREALFKTLTTGYLHFWSLSRKKLWLKGETSGNFQIIEEFKVDCDADAVLFKVTSLGPICHTGNYTCFYRSYDELVNSKS,soluble
7,MTARDYIWNADGEVGGINDKLRGCLVFSYDRSGWLTSRTGQMYDHDHYYYDKAGNLLTDEYQGAVMDNRLPGYGRDRYRYNEWGELTERRDQQLEWNAQGQLTRVISSNSETRYQYDALGRRISKATSNLHTDRGERSRTTFVWEGFRLLQETTWQGKRTYLYDAEQPYTPVAAITGRGESQKIWYYHTDLTGTVHEVTAPDGTLVWAGYQAGFGENRGDISNSGAYFEQPQRLPGQYFDEETGLHYNLFRYYAPECGRFVSQDPIGLNGGLNLYAYAPNPLGWIDPLGLNSLGIDSNNIFRGDGNYKGGGIGQPKSGTISAQDIIDHLLEHHHHHH,not soluble
8,MLTYYRDLFSLKLASCLDMEYSSFENATKINFREFFPEARSLTFSKKPDAKQGMQGGGMLKMLIDEKETIFYIKAFTGLNEENAIKLNELVVCKILHRMGKGPNYWFYINNHFSKKAVYMASKEVVGCG,not soluble
9,MGSDKIHHHHHHMKKVLGLVVSNRKLGNSEILVKEIINNIPEECNRELIRLTDLEIKPCKACYRCLQPNNACPVRDDFNFVIEKIREADALIIGVPVYFLGPHGYYKMLTDRLLGSQNYSQDTQGKPCIIVMPYGSEGWEGYSKIACMVMPKLLRMKLVDCWQIHASLPGESLLNPENISYARALGRELFNGREYHAESKECPICGSDLFRLINENQVECPICGSRGILKNNFSPDFSDSDYRRFSDHEMDEHFKGWLLEMKDRFSAEKNHLKELQKGYRNQNWWIKPCRLDEC,not soluble
10,MAHHHHHHMLCRNVSRSYSARRRCRPSVCVAFGALLVEPPQAAYLRRCAVSSRATATAASLSSDHASLSVCKRCEHTTTIATPPERVLTTKEQVDELMDSFAEACELITDAKESVGTTYFADDMEDAEKQTHDVLNRWESLQAALERKGTAEELQKVRNMYDLKIKQLKAELEAVREAGGAG,not soluble
11,MGSDKIHHHHHHMQEERSEKKIGPFKFQSNFEWKEFPQEEFEWFVKEVEKRFGLNLSSYKPQRVKRRTELLLRKYNVGYREYLNMLIKDKKYLDEFMDKMTINVTEFFRNPEKWWELRDEIIPLIAKNSLRMKFWSAGCSSGEEPYSLAILVHELNLSYKTRILATDIDIGVLRRAQEGIYEERAFVSTPKEYLEKYFEKLPDGRYRIKDSVKKIVEFKRHDLLKDPFEKNFDLIVCRNVVIYFEPEAKNELYRKFAESLKPGGFLFVGNTERIFNYKELGFEIYKPFIYRKVK,not soluble
12,MVYVSNKYLTMSEMKVNAQYILNYLSSNGWTKQAICGMLGNMQSESTINPGLWQNLDEGNTSLGFGLVQWTPASNYINWANSQGLPYKNMDSELKRIIWEVNNNAQWINLRDMTFKEYIKSTKTPRELAMIFLASYERPANPNQPERGDQAEYWYKNLSGGGGGGLQLAQFPMDIINISQGENGSFSHKGTLCIDFVGKTEKYPYYAPCDCTCVWRGDASAYLAWTSDKEVMCADGSVRYITWVNVHESPLPFDVGKKLKKGDLMGHTGIGGNVTGDHWHFNVIDGKEYQGWTKKPDSCLAGTELHIYDVFAVNNVEIINGNGYDWKTSDWQDG,soluble
13,GPGSMPSKEASSRNLPISGRDTNGKTYRSTDEMWKAELTGDLYDPEKGWYGKALEYWRTVPATVSGVLGGMDHVHDVDIEGSRNFIASLPGHGTSRALDCGAGIGRITKNLLTKLYATTDLLEPVKHMLEEAKRELAGMPVGKFILASMETATLPPNTYDLIVIQWTAIYLTDADFVKFFKHCQQALTPNGYIFFKENCSTGDRFLVDKEDSSLTRSDIHYKRLFNESGVRVVKEAFQEEWPTDLFPLKMYALK,soluble
14,MGHHHHHHSHNTALVLCPFKDSGCKHRCPKLAMARHVEESVKPHLAMMCALVSRQRQELQELRRELEELSVGSDGVLIWKIGSYGRRLQEAKAKPNLECFSPAFYTHKYGYKLQVSAFLNGNGSGEGTHLSLYIRVLPGAFDNLLEWPFARRVTFSLLDQSDPGLAKPQHVTETFHPDPNWKNFQKPGTWRGSLDESSLGFGYPKFISHQDIRKRNYVRDDAVFIRAAVELPRKILS,not soluble
15,MSLEKELVTWFNILNKPPLEYLKGVEDFYNAYGEVLEMQDRHAHLLSYKDDDYLHVILCASILHHYSDQDIETLKELLVKFYYQDWVAGQTKTTRSQTCCNIINVLKEKKSMDYITSIVKEYLDDKNITQRFKDNLKDSNLYTKFYFINGKTAKKNSWVKPILILVEYFMSDNANPACIKMDDDLHVERILPQNPDPSSQWMKDFSEEERGLYTHSLANLTLLGGKKNTKALSQALNQDFKEKKEIYMGKTIMLDNKKTFRVMTCYDMTKNDVCRYTEWTPTSLEKRKESEGHHHHHH,not soluble
16,MGSDKIHHHHHHMNKSIFDDINSTNIGSYWTTLSQQMDPYLWETLMPNSKQIASDFVFYRGMSNAPKPLAPSAFGVPAIMRKRSGFDRVSDHTRYFKEGYYIDEAIRQQLLRVGANATQAEKDMINNHIFQDSMELLKGAQLTREIMRNQIIQTGKINVIGNGQTITADYQMKASHRVVNDKAWGTTGSTPFEDIQKARDLVGDDSDQVITRAVMNKATFNALMSDTNVKSTMLYDNGKLANVTIPQSELLNFLVTNYGLTVQIYDKRYMDIDGTKKKWIPDGRVIFLPDGELGKTIMSTTPEEADLAAASDVDMTLVDNGVAITTMLDSDPVNKKINVSQEVMPSFPQIDGIYILDAFAKTGTDPLATTPTAPASTTTTTDPKA,not soluble
